Consider 2 molecules from US20170219602A1.

Assay [1] deals with IgE antibodies of serum A. Nature of the assay: ImmunoCAP inhibition, inhibitor 100 µg/mL, horse dander extract solid phase.
Assay [2] concerns the target IgE antibodies of serum B. The description is as above.
For assay [3], the target named is IgE antibodies of serum C. Described as above.
For assay [4], the target named is IgE antibodies of serum D. Described as above.
Assay [5] concerns the target IgE antibodies of serum E. The description is as above.
The target of assay [6] is IgE antibodies of serum A. The assay is described as follows: ImmunoCAP inhibition, inhibitor 100 µg/mL, competitor rEqu c s on solid phase.
Assay [7] concerns the target IgE antibodies of serum B. Described as above.
In assay [8] the target is IgE antibodies of serum C. Described as above.
The target of assay [9] is IgE antibodies of serum D. Described as above.
The target of assay [10] is IgE antibodies of serum E. The assay is described as above.
Assay [11] deals with IgE antibodies of serum A. Nature of the assay: ImmunoCAP inhibition, inhibitor 100 µg/mL, competitor rFel d 1 on solid phase.
Assay [12] has as its target IgE antibodies of serum B. The assay is described as above.
Assay [13] has as its target IgE antibodies of serum C. The assay is described as above.
Assay [14] deals with IgE antibodies of serum D. The description is as above.
Assay [15] addresses IgE antibodies of serum E. The assay is described as above.
Assay [16] concerns the target IgE antibodies of serum A. The assay is described as follows: ImmunoCAP inhibition, inhibitor 100 µg/ml, cat dander extract solid phase.
For assay [17], the target named is IgE antibodies of serum B. The assay is described as above.
In assay [18] the target is IgE antibodies of serum C. The assay is described as above.
In assay [19] the target is IgE antibodies of serum D. The description is as above.
Assay [20] concerns the target IgE antibodies of serum E. The description is as above.
Assay [21] has as its target IgE antibodies of serum A. Nature of the assay: ImmunoCAP inhibition, inhibitor 100 µg/ml, horse dander extract solid phase.
The target of assay [22] is IgE antibodies of serum B. Described as above.
For assay [23], the target named is IgE antibodies of serum C. The assay is described as above.
Assay [24] addresses IgE antibodies of serum D. The assay is described as above.
Assay [25] deals with IgE antibodies of serum E. The description is as above.

B1: recombinant single chain Equ c s ab (protein)
chain: MDICPAVKEDVNIFLTGTPDDYVKKVSQYQRNPVILANAEKLKNCIDKKLTAEDKENALSVLEKIYSSDFCGGGGSGGGGSGGGGSCPSFYAVLGVLSLGSKTLLDTSLNLVNATEPEKVAMGKIQDCYNEAGVITKISDLIIMGTITTSPECISHALSTLTTDVQEGISKLNPLGRLEHHHHHH
On to B1, for which the Inhibition (%) worked out at 96% in [1]; 93% in assay [2]; 96% in assay [3]; 96% in [4]; 98% in assay [5]; 60% in [6]. In addition, the Inhibition (%) in assay [7] is 62%; in [8] it was 62%; in assay [9] it was 59%; in assay [10], 76%; in [11], -7%; in [12] it was -3%. Also, the Inhibition (%) in assay [13] is -2%; in assay [14] it was 5%; in assay [15], 7%.

B2: recombinant Equ c 15k (protein, from a related filing, horse)
chain 1: ATCPAVATDIASFFLLPDSLFKLQLIKYQAPPEAKDATMQVKQCINEISAGDRYIITETLGKIVLQCGA
chain 2: GSGCQLLEDVVEKTITAELSPAEYVEAVQEFIPDEATEKAAIQLKQCYLKQSNETLNDFRTMMNSMYNSAYCALF
Take B2: the Inhibition (%) in assay [16] was -2%; in [17], 6%; in assay [18], -2%; in assay [19], 0%; in assay [20], 4%; in [21], -5%. The Inhibition (%) in assay [22] was -2%; in assay [23] it was 5%; in assay [24], 4%; in [25], 2%; in [1] it was -10%; in assay [2], -2%. The Inhibition (%) was 0% in assay [3]; -6% in [4]; -10% in assay [5]; 12% in assay [6]; 5% in assay [7]; 7% in assay [8]. Further, the Inhibition (%) in [9] was 8%; in assay [10], 4%; in assay [11], -5%; in assay [12], -4%; in assay [13], -6%; in assay [14], -2%. Also, the Inhibition (%) in assay [15] was -3%.
